Patent US7727950B2, “Methods and reagents for assaying protein kinase activity” (The University of Dundee, priority 2002, dated 2010)

Substrate: CC(C)C[C@H](NC(=O)[C@@H](NC(=O)[C@H](CCCNC(=N)N)NC(=O)[C@H](C)NC(=O)[C@@H](N)CCCNC(=N)N)[C@@H](C)O)C(=O)N[C@@H](CO)C(=O)N[C@@H](Cc1ccccc1)C(=O)N[C@@H](C)C(=O)N[C@@H](CCC(=O)O)C(=O)N1CCC[C@H]1C(=O)NCC(=O)O
Experiment: Kinetic parameters for peptide phosphorylation, radioactive filter-binding assay
Assay type: biochemical, human
Conditions: other: MAPKAP-K3; Standard Substrate = …; 30.0 °C
Excerpt: Apart from the AMP-activated protein kinase (AMPK, a gift from Drs S. Hawley and D. G. Hardie), cGMP-dependent protein kinase (PKG, a generous gift from Drs Susan Lohmann and Ulrich Walter, University of Wurzburg, Germany) and the catalytic subunit of cyclic AMP-dependent protein kinase (PKA, a gift from Dr C. Smythe), which were isolated from rat liver, bovine lung and bovine heart, respectively, all other protein kinases were expressed as either GST-fusion or His-tagged proteins (by a person, a person, Dr A. Paterson or a person, in this Division). The expressed proteins all corresponded to the human sequences apart from the rat Rho-dependent protein kinase (ROCK-II) and rat mitogen-activated protein kinase (MAPK) activated kinase-1a (MAPKAP-K1a, also called RSK). […]
All protein kinase assays were linear with respect to time. […] All papers were subsequently washed a further three times in phosphoric acid, once in acetone, then dried and counted for radioactivity. […] The plates were then washed six times (five min per wash) in PBS, 0.1% Tween 20 and binding of the phospho-specific antibody detected by incubating the plates with peroxidase-conjugated anti-sheep antibodies (Pierce). […] Signals were quantitated on LAS-1000IR software (FujiFilm). […]

B1: MAPKAP-K3 (Homo sapiens) (protein)
chain: MDGETAEEQGGPVPPPVAPGGPGLGGAPGGRREPKKYAVTDDYQLSKQVLGLGVNGKVLECFHRRTGQKCALKLLYDSPKARQEVDHHWQASGGPHIVCILDVYENMHHGKRCLLIIMECMEGGELFSRIQERGDQAFTEREAAEIMRDIGTAIQFLHSHNIAHRDVKPENLLYTSKEKDAVLKLTDFGFAKETTQNALQTPCYTPYYVAPEVLGPEKYDKSCDMWSLGVIMYILLCGFPPFYSNTGQAISPGMKRRIRLGQYGFPNPEWSEVSEDAKQLIRLLLKTDPTERLTITQFMNHPWINQSMVVPQTPLHTARVLQEDKDHWDEVKEEMTSALATMRVDYDQVKIKDLKTSNNRLLNKRRKKQAGSSSASQGCNNQ
notes: GST; made in house; host or cells: E. coli
Km: 30 µM
